Residue numbers refer to the chain shown, from its start. Names and notes keep the numbering of the source. Read-outs that look alike come from different tables or passages of the source.
B1: UbaA, E1-like SAMP-activating enzyme of Haloferax volcanii, purified wild type (enzyme, UniProt D4GSF3 1-270, looked up)
chain: MTLSLDATQLDRYSRHIIMDEVGPEGQGRLLSSRVVVVGAGGLGAPAIQYLAAVGVGELVVVDDDVVERSNLQRQVVHCDDDVGTPKAESAAAFVRGLNPDVSVEPVEARVDKSNVHEVVAGSDVVVDASDNFPTRYLLNDVCRFEGIPLVHGAIYKFEGQATTLVPDGPCYRCLFPEAPEPGTVPDCATTGVLGVLPGTVGCIQATEAMKLLLDEGEALDGRLLFYDAMDMTFETVPYRTNPDCPVCGEGGVDSIEDIDYVESCAISLD
B2: UbaA D131N, purified (enzyme, Haloferax volcanii, UniProt D4GSF3 1-270, looked up)
chain: B1 chain with D131N
B3: UbaA C188A, purified (enzyme, Haloferax volcanii, UniProt D4GSF3 1-270, looked up)
chain: B1 chain with C188A
B4: UbaA K87R, purified (enzyme, Haloferax volcanii, UniProt D4GSF3 1-270, looked up)
chain: B1 chain with K87R
B5: SAMP1, small ubiquitin-like archaeal modifier protein 1, purified (natural protein, Haloferax volcanii, UniProt D4GUF6 1-87, looked up)
chain: MEWKLFADLAEVAGSRTVRVDVDGDATVGDALDALVGAHPALESRVFGDDGELYDHINVLRNGEAAALGEATAAGDELALFPPVSGG
B6: SAMP2, small ubiquitin-like archaeal modifier protein 2, purified (natural protein, Haloferax volcanii, UniProt D4GZE7 1-66, looked up)
chain: MNVTVEVVGEETSEVAVDDDGTYADLVRAVDLSPHEVTVLVDGRPVPEDQSVEVDRVKVLRLIKGG

Legend:
[1] = biological target: the molecule itself; assay: SEC
[2] = biological target: B1; assay: ITC
[3] = biological target: B1; assay: ITC; remark: listed apart in the source
[4] = biological target: B1; assay: ITC; remark: listed apart in the source
[5] = biological target: B1; assay: ITC; remark: listed apart in the source

Ka [5] [M⁻¹]	Kd [5] [µM]	dH [5] [kcal/mol]	stoichiometry N [5]	Binder	stoichiometry N [1]	other results
–	–	–	–	B1	2	–
–	–	–	–	B2	2	–
–	–	–	–	B3	2	–
–	–	–	–	B4	2	–
850000	1.2	2.92	0.98	B5	–	Ka [2]: 250000 M⁻¹; Kd [2]: 4.1 µM; dH [2]: 3.82 kcal/mol; stoichiometry N [2]: 1.02; Ka [3]: 590000 M⁻¹; Kd [3]: 1.7 µM; dH [3]: 8.65 kcal/mol; stoichiometry N [3]: 0.95; Ka [4]: 230000 M⁻¹; Kd [4]: 4.4 µM; dH [4]: 4.95 kcal/mol; stoichiometry N [4]: 0.95
230000	4.3	-16.5	0.99	B6	–	–
